T1: Human interferon alpha receptor 1 (IFNAR1) (human, UniProt P17181 28-436)
T1 construct: Soluble antigen flowed over captured antibody in Biacore; also called human IFNAR1; Human Interferon alpha/beta Receptor 1
T1 sequence: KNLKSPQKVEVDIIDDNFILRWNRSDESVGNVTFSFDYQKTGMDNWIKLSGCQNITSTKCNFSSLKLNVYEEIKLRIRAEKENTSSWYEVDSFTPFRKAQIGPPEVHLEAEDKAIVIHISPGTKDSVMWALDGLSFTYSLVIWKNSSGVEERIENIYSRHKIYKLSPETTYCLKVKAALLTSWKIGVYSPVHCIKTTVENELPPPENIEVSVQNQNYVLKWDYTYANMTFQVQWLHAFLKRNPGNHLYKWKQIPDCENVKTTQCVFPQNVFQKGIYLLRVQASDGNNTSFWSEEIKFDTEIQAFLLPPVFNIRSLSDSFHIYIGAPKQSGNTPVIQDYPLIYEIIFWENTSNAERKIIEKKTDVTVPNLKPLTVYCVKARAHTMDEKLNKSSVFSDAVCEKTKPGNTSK

T2: Human IFNAR1 on cells (HEK Blue IFNα/β cells, Daudi cells, human whole blood) (human, UniProt P17181 28-557)
T2 sequence (looked up): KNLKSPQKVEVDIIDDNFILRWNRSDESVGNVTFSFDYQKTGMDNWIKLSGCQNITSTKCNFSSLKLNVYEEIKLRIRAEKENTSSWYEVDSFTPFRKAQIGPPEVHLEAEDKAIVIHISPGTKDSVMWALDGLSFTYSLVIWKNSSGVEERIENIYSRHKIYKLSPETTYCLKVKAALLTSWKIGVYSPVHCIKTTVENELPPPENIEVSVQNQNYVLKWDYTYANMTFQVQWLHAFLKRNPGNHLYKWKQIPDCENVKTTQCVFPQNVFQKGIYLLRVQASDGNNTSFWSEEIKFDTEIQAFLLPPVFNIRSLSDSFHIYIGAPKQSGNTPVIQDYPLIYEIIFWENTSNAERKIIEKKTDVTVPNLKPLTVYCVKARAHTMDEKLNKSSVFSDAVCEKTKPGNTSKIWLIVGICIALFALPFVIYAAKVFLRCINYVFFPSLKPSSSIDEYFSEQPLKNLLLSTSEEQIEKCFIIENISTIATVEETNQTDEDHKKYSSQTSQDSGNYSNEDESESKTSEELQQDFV

B1: QX006N (HZD1203-45-IgG4.1) (antibody, V domains shown)
VH: EVQLVESGGGLVQPGGSLRLSCAASGFSLSSYYMTWVRQAPGKGLEWVSVINVYGGTYYASWAKGRFTISRDNSKNTLYLQMNSLRAEDTAVYYCAREDVAVYMAIDLWGQGTLVTVSS
VL: AIQMTQSPSSLSASVGDRVTITCQASQSISNQLSWYQQKPGKAPKLLIYDASSLASGVPSRFSGSRSGTKFTLTISSLQPEDFATYYCLGIYGDGADDGIAFGGGTKVEIKR
notes: Humanized rabbit antibody (clone 1203#) with human IgG4 constant region, expressed in ExpiCHO-S cells; also called anti-human interferon alpha receptor 1 (IFNAR1) monoclonal antibody of the present application
B2: Anifrolumab (antibody, V domains shown)
VH: EVQLVQSGAEVKKPGESLKISCKGSGYIFTNYWIAWVRQMPGKGLESMGIIYPGDSDIRYSPSFQGQVTISADKSITTAYLQWSSLKASDTAMYYCARHDIEGFDYWGRGTLVTVSS
VL: EIVLTQSPGTLSLSPGERATLSCRASQSVSSSFFAWYQQKPGQAPRLLIYGASSRATGIPDRLSGSGSGTDFTLTITRLEPEDFAVYYCQQYDSSAITFGQGTRLEIKR

Tests used:
[1] = biological target: T1, Human interferon alpha receptor 1 …; experiment: SPR, Biacore T200, antibody captured on Protein A chip, antigen as analyte, 25 C, 1:1 model, mean of three
Protocol: BiacoreT200 was used to detect the affinity between QX006N (HZD1203-45-IgG4.1) and human IFNAR1. All processes were performed at 25° C. A commercial Protein A chip was used to immobilize an appropriate amount of antibody through the capture method so that Rmax was around 50 RU and the capture flow rate was 10 μl/min. The antigen was gradient diluted, the flow rate of the instrument was switched to 30 μl/min, flowed through the reference channel and the fixed antibody channel in order of concentration from low to high, and flowed through buffer as the negative control. The chip was regenerated with pH1.5 glycine after each binding and dissociation was completed. The built-in analysis software of the instrument was used to select the 1:1 binding model in the Kinetics option for fitting, and the antibody's binding rate constant kₐ, dissociation rate constant kd, and dissociation equilibrium constant KD values were calculated.
The data in the table were: each sample was tested three times and the average value was calculated.

[2] = biological target: T2, Human IFNAR1 on cells (HEK Blue IFNα/β …); experiment: cell-based or functional assay

Binder | Kd [1] | koff [1] | kon [1] | EC50 of neutralising the effect of interferon (0.8 ng/ml IFNα.2b) on Daudi cell proliferation (CellTiter-Glo) [2] | IC50 of inhibiting interferon (0.2 ng/ml IFNα.2b) induced STAT1/2 phosphorylation in HEK Blue IFNα/β reporter cells [2] | IC50 of inhibiting interferon (8 ng/ml IFNα.2b with 40 ng/ml TNF-α) induced release of CXCL10/IP10 from human whole blood [2]
B1 | 0.108 nM | 3.76e-05 s⁻¹ | 347000 M⁻¹ s⁻¹ | 0.0299 µg/mL | 0.00523 µg/mL | 0.698 µg/mL
B2 | – | – | – | 0.0317 µg/mL | 0.00443 µg/mL | 0.562 µg/mL

From patent publication US20240254244A1 (QYUNS THERAPEUTICS, published 2024)
